Results: patent publication US20230272028

Key:
[1] = tested on: ALU30-10
[2] = tested on: ALU30-6
[3] = tested on: ALU30-15
[4] = tested on: ALU30-16
[5] = tested on: ALU30-8
[6] = tested on: ALU30-11
[7] = tested on: ALU30-7
[8] = tested on: ALU30-19
[9] = tested on: ALU30-9
[10] = tested on: ALU30-13
[11] = tested on: ALU30-18
[12] = tested on: ALU30-5
[13] = tested on: ALU30-1
[14] = tested on: ALU30-12
[15] = tested on: ALU30-14
[16] = tested on: ALU30-17
[17] = tested on: ALU30-2
[18] = tested on: ALU30-3
[19] = tested on: ALU30-4
ALU30-4, sequence (chain, as listed by the source): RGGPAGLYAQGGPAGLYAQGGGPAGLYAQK

ALU30-15, sequence (chain, as listed by the source): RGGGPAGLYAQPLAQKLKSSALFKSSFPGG
ALU30-9, sequence (chain, as listed by the source): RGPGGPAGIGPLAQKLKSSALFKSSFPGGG
ALU30-7, sequence (chain, as listed by the source): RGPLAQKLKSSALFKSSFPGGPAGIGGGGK
ALU30-13, sequence (chain, as listed by the source): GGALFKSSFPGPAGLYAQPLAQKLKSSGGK
ALU30-2, sequence (chain, as listed by the source): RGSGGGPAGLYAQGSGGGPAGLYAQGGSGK
ALU30-10, sequence (chain, as listed by the source): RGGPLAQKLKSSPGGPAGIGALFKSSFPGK
Factor Xa, recombinant human, sequence (chain): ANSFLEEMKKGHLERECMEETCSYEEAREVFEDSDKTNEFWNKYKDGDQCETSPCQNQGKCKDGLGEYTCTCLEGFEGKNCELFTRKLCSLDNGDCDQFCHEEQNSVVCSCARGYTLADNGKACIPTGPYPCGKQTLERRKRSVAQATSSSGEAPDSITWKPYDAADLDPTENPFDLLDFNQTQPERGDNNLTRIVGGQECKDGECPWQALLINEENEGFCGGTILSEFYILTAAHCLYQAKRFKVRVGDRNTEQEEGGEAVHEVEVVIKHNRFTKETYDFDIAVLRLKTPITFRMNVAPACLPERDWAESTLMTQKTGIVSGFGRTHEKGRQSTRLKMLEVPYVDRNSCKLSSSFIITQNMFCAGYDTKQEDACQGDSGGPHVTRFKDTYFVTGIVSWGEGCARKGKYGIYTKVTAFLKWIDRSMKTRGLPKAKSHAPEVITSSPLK
ALU30-14, sequence (chain, as listed by the source): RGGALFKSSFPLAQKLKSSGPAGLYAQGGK
ALU30-6, sequence (chain, as listed by the source): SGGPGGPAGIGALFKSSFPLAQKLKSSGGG
ALU30-19, sequence (chain, as listed by the source): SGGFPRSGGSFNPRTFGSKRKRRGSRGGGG
ALU30-12, sequence (chain, as listed by the source): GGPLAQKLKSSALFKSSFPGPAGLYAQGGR
hepsin, recombinant human, sequence (chain, as listed by the source): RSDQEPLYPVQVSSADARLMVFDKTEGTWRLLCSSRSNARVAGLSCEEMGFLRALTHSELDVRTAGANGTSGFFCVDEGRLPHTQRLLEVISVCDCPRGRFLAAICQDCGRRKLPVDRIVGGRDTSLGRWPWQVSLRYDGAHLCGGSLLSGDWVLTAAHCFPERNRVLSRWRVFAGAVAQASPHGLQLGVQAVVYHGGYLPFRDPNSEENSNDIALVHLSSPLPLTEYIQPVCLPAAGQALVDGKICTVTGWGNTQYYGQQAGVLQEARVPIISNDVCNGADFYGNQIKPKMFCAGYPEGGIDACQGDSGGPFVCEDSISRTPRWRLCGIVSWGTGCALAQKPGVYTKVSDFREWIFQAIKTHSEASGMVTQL
ALU30-8, sequence (chain, as listed by the source): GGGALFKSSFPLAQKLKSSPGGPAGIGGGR
ALU30-5, sequence (chain, as listed by the source): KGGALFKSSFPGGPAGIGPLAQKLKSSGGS
ALU30-16, sequence (chain, as listed by the source): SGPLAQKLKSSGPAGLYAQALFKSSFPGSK
ALU30-1, sequence (chain, as listed by the source): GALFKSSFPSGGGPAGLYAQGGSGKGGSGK
MMP-9, recombinant human, sequence (chain, as listed by the source): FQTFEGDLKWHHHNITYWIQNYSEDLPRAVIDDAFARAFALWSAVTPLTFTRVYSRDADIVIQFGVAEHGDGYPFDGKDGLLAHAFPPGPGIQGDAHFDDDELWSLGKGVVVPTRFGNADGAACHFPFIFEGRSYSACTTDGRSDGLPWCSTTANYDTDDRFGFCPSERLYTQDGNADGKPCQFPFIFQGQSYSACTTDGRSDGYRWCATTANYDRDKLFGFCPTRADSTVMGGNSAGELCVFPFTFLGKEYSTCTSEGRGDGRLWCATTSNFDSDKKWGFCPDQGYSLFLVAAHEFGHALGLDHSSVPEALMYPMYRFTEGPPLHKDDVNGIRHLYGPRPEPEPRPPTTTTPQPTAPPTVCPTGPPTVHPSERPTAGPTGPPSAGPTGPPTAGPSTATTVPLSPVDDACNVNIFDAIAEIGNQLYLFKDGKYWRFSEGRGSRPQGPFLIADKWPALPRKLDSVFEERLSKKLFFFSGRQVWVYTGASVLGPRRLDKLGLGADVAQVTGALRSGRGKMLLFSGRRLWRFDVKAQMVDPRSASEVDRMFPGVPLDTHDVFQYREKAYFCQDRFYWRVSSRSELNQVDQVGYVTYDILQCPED
ALU30-3, sequence (chain, as listed by the source): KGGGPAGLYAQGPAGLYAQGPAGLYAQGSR
ALU30-18, sequence (chain, as listed by the source): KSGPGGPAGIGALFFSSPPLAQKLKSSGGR
ALU30-17, sequence (chain, as listed by the source): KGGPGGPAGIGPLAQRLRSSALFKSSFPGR
ALU30-11, sequence (chain, as listed by the source): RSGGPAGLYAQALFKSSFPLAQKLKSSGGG

Substance	30-mer peptide degradation by recombinant enzyme (MSP-MS) [1]	30-mer peptide degradation by recombinant enzyme (MSP-MS) [2]	30-mer peptide degradation by recombinant enzyme (MSP-MS) [3]	30-mer peptide degradation by recombinant enzyme (MSP-MS) [4]	comparison of cleavage efficiencies across the 30-mer library [4]	30-mer peptide degradation by recombinant enzyme (MSP-MS) [5]	30-mer peptide degradation by recombinant enzyme (MSP-MS) [6]	30-mer peptide degradation by recombinant enzyme (MSP-MS) [7]	30-mer peptide degradation by recombinant enzyme (MSP-MS) [8]	30-mer peptide degradation by recombinant enzyme (MSP-MS) [9]	30-mer peptide degradation by recombinant enzyme (MSP-MS) [10]	30-mer peptide degradation by recombinant enzyme (MSP-MS) [11]	30-mer peptide degradation by recombinant enzyme (MSP-MS) [12]	30-mer peptide degradation by recombinant enzyme (MSP-MS) [13]	30-mer peptide degradation by recombinant enzyme (MSP-MS) [14]	30-mer peptide degradation by recombinant enzyme (MSP-MS) [15]	30-mer peptide degradation by recombinant enzyme (MSP-MS) [16]	30-mer peptide degradation by recombinant enzyme (MSP-MS) [17]	30-mer peptide degradation by recombinant enzyme (MSP-MS) [18]	30-mer peptide degradation by recombinant enzyme (MSP-MS) [19]	further results
Factor Xa, recombinant human	all other peptides bearing a CTSL1_1 motif were cleaved by Factor Xa at either ALF|KSSFP (SEQ ID NO: 198) or ALFKS|SFP (SEQ ID NO: 198)	all other peptides bearing a CTSL1_1 motif were cleaved by Factor Xa at either ALF|KSSFP (SEQ ID NO: 198) or ALFKS|SFP (SEQ ID NO: 198)	all other peptides bearing a CTSL1_1 motif were cleaved by Factor Xa at either ALF|KSSFP (SEQ ID NO: 198) or ALFKS|SFP (SEQ ID NO: 198)	all other peptides bearing a CTSL1_1 motif were cleaved by Factor Xa at either ALF|KSSFP (SEQ ID NO: 198) or ALFKS|SFP (SEQ ID NO: 198)	the lowest susceptibility to thrombin, Factor Xa, and hepsin	all other peptides bearing a CTSL1_1 motif were cleaved by Factor Xa at either ALF|KSSFP (SEQ ID NO: 198) or ALFKS|SFP (SEQ ID NO: 198)	all other peptides bearing a CTSL1_1 motif were cleaved by Factor Xa at either ALF|KSSFP (SEQ ID NO: 198) or ALFKS|SFP (SEQ ID NO: 198)	all other peptides bearing a CTSL1_1 motif were cleaved by Factor Xa at either ALF|KSSFP (SEQ ID NO: 198) or ALFKS|SFP (SEQ ID NO: 198)	Peptide Alu30-19 with this motif was completely degraded before the 5 min time point	all other peptides bearing a CTSL1_1 motif were cleaved by Factor Xa at either ALF|KSSFP (SEQ ID NO: 198) or ALFKS|SFP (SEQ ID NO: 198)	all other peptides bearing a CTSL1_1 motif were cleaved by Factor Xa at either ALF|KSSFP (SEQ ID NO: 198) or ALFKS|SFP (SEQ ID NO: 198)	The peptide with the motif CTSL1_2 was cleaved at the lowest efficiency	the only library peptide with significant cleavage was Alu30-5, cleaved at the CTSL1_1 motif ALFKS|SFP (SEQ ID NO: 198), upstream of a FAPa_1 motif	all other peptides bearing a CTSL1_1 motif were cleaved by Factor Xa at either ALF|KSSFP (SEQ ID NO: 198) or ALFKS|SFP (SEQ ID NO: 198)	all other peptides bearing a CTSL1_1 motif were cleaved by Factor Xa at either ALF|KSSFP (SEQ ID NO: 198) or ALFKS|SFP (SEQ ID NO: 198)	all other peptides bearing a CTSL1_1 motif were cleaved by Factor Xa at either ALF|KSSFP (SEQ ID NO: 198) or ALFKS|SFP (SEQ ID NO: 198)	all other peptides bearing a CTSL1_1 motif were cleaved by Factor Xa at either ALF|KSSFP (SEQ ID NO: 198) or ALFKS|SFP (SEQ ID NO: 198)				
hepsin, recombinant human					the lowest susceptibility to thrombin, Factor Xa, and hepsin				Alu30-19 was cleaved at all three motifs within the first 15 min of the reaction												comparison of cleavage efficiencies across the 30-mer library [3]: it had slightly higher hepsin susceptibility and lower CTSL1 activity; apparent catalytic efficiency (kcat/KM) [5]: The authentic peptide Alu30-19, as well as the top cleaved peptides Alu30-8,-9, -12, and -14 all had apparent catalytic efficiencies on the same order of 105; apparent catalytic efficiency (kcat/KM) [8]: The authentic peptide Alu30-19, as well as the top cleaved peptides Alu30-8,-9, -12, and -14 all had apparent catalytic efficiencies on the same order of 105; apparent catalytic efficiency (kcat/KM) [9]: The authentic peptide Alu30-19, as well as the top cleaved peptides Alu30-8,-9, -12, and -14 all had apparent catalytic efficiencies on the same order of 105; apparent catalytic efficiency (kcat/KM) [14]: The authentic peptide Alu30-19, as well as the top cleaved peptides Alu30-8,-9, -12, and -14 all had apparent catalytic efficiencies on the same order of 105; apparent catalytic efficiency (kcat/KM) [15]: The authentic peptide Alu30-19, as well as the top cleaved peptides Alu30-8,-9, -12, and -14 all had apparent catalytic efficiencies on the same order of 105
thrombin, recombinant human	Thrombin showed higher activity than Factor Xa, and it cleaved each of the 30-mer peptides	the CTSL1_2 motif had lower cleavage activity than did the CTSL1_1 motif (peptides Alu30-18 vs Alu30-6)	the peptides Alu30-12, Alu30-13 and Alu30-15, with MMP141 motifs in combination with ADAM17_2 and CTSL1_1, were cleaved at lower efficiency by thrombin	Thrombin showed higher activity than Factor Xa, and it cleaved each of the 30-mer peptides	the lowest susceptibility to thrombin, Factor Xa, and hepsin	Thrombin showed higher activity than Factor Xa, and it cleaved each of the 30-mer peptides	Thrombin showed higher activity than Factor Xa, and it cleaved each of the 30-mer peptides	Thrombin showed higher activity than Factor Xa, and it cleaved each of the 30-mer peptides	Thrombin showed higher activity than Factor Xa, and it cleaved each of the 30-mer peptides	The two alternate ADAM17 motifs were cleaved with similar efficiency (peptides Alu30-17 vs Alu30-9)	the peptides Alu30-12, Alu30-13 and Alu30-15, with MMP141 motifs in combination with ADAM17_2 and CTSL1_1, were cleaved at lower efficiency by thrombin	the CTSL1_2 motif had lower cleavage activity than did the CTSL1_1 motif (peptides Alu30-18 vs Alu30-6)	Thrombin showed higher activity than Factor Xa, and it cleaved each of the 30-mer peptides	The peptides Alu30-1 and Alu30-3 were the most rapidly cleaved in the library	the peptides Alu30-12, Alu30-13 and Alu30-15, with MMP141 motifs in combination with ADAM17_2 and CTSL1_1, were cleaved at lower efficiency by thrombin	Thrombin showed higher activity than Factor Xa, and it cleaved each of the 30-mer peptides	The two alternate ADAM17 motifs were cleaved with similar efficiency (peptides Alu30-17 vs Alu30-9)	The peptide Alu30-2, bearing two MMP14_1 motifs, was less susceptible to thrombin	The peptides Alu30-1 and Alu30-3 were the most rapidly cleaved in the library	Alu30-4 was also an efficient substrate	
MMP-9, recombinant human	the FAPa_1 motif was also cleaved within the peptides bearing FAPa_1 directly followed by the CTSL1_1 motif at PGGPAG|IGALF (SEQ ID NO: 247); these were lower efficiency cleavages	the FAPa_1 motif was also cleaved within the peptides bearing FAPa_1 directly followed by the CTSL1_1 motif at PGGPAG|IGALF (SEQ ID NO: 247); these were lower efficiency cleavages	The next most efficient substrates contained the pair of motifs where MMP14_1 was followed directly by ADAM17_2			The FAPa_1 motif was not cleaved by MMP9, however, when followed either by the ADAM17_2 motif or the spacing residues GG		The FAPa_1 motif was not cleaved by MMP9, however, when followed either by the ADAM17_2 motif or the spacing residues GG		The FAPa_1 motif was not cleaved by MMP9, however, when followed either by the ADAM17_2 motif or the spacing residues GG	The next most efficient substrates contained the pair of motifs where MMP14_1 was followed directly by ADAM17_2		The FAPa_1 motif was not cleaved by MMP9, however, when followed either by the ADAM17_2 motif or the spacing residues GG	The single or double MMP14_1 motif-bearing peptides were next in the order	The slowest peptides bear the MMP14_1 motif near the C-terminus of the 30-mer peptide	The slowest peptides bear the MMP14_1 motif near the C-terminus of the 30-mer peptide		The single or double MMP14_1 motif-bearing peptides were next in the order	The most efficient MMP9 substrates were those that bore three-repeats of the MMP14_1 motif	The most efficient MMP9 substrates were those that bore three-repeats of the MMP14_1 motif	product formation at single bonds (MSP-MS) [17]: the specific cleavage of the Alu30-2 peptide was more efficient than the Alu30-1 peptide; product formation at single bonds (MSP-MS) [13]: the specific cleavage of the Alu30-2 peptide was more efficient than the Alu30-1 peptide
